The text below walks through data of publication PMC7184779.

The experiment has as its target SADS-CoV papain-like protease 2 (PLP2) domain of nsp3, wild type (SADS-CoV).

Regarding “ubiquitin-AMC (from UniProt P0CG48 1-76) (natural protein)”, the kcat/Km of hydrolysis of Ub-AMC (AMC fluorescence, Michaelis-Menten fit) came to 62700 M⁻¹ s⁻¹.
